How the values were obtained:
[1] = target: T1, Soluble human FcRn (complex of FcRn and β2-microglobulin) (human, UniProt P55899 24-290; P61769 21-119); experiment: SPR (Biacore 3000), pH 6.0; antibody captured, human FcRn as analyte; steady state affinity
T1 construct: Co-expressed in HEK293H cells and purified from the culture supernatant; also called hFcRn
Procedure: (§1) Human FcRn was prepared according to the method described in Reference Example 2. The binding to human FcRn was assessed using Biacore 3000. An antibody was bound to Protein L or rabbit anti-human IgG Kappa chain antibody immobilized onto a sensor chip, human FcRn was added as an analyte for interaction with the antibody, and the affinity (KD) was calculated from the amount of bound human FcRn. Specifically, Protein L or rabbit anti-human IgG Kappa chain antibody was immobilized onto sensor chip CMS (BIACORE) by the amine coupling method using 50 mM Sodium-phosphate buffer (pH 6.0) containing 150 mM NaCl as the running buffer. Then, IL6R H0-IgG1/L0-k0 and IL6R H0-M82/L0-k0 was each diluted with a running buffer containing 0.02% Tween20, and injected to be bound to the chip. Human FcRn was then injected and the binding of the human FcRn to antibody was assessed.
(§2) The affinity was computed using BIAevaluation Software. The obtained sensorgram was used to calculate the amount of hFcRn bound to the antibody immediately before the end of human FcRn injection. The affinity of the antibody for human FcRn was calculated by fitting with the steady state affinity method.

[2] = target: T1, Soluble human FcRn (complex of FcRn and …); experiment: SPR (Biacore 3000), pH 6.0; antibody captured on Protein L or rabbit anti-human IgG Kappa chain antibody, human FcRn as analyte; steady state affinity fit
Procedure: as §1, §2

fold increase of binding compared to IL6R H0-IgG1/L0-k0 [1]: ~1.34 times | Kd [2]: 1210 nM
B1: IL6R H0-M82/L0-k0 (antibody, IgG2)
heavy: QVQLQESGPGLVRPSQTLSLTCTVSGYSITSDHAWSWVRQPPGRGLEWIGYISYSGITTYNPSLKSRVTMLRDTSKNQFSLRLSSVTAADTAVYYCARSLARTTAMDYWGQGSLVTVSSASTKGPSVFPLAPCSRSTSESTAALGCLVKDYFPEPVTVSWNSGALTSGVHTFPAVLQSSGLYSLSSVVTVPSSNFGTQTYTCNVDHKPSNTKVDKTVERKSSVECPPCPAPPVAGPSVFLFPPKPKDTLMISRTPEVTCVVVDVSQEDPEVQFNWYVDGVEVHNAKTKPREEQFNSTFRVVSVLTVVHQDWLNGKEYKCKVSNKGLPAPIEKTISKTKGQPREPQVYTLPPSQEEMTKNQVSLTCLVKGFYPSDIAVEWESNGQPENNYKTTPPMLDSDGSFFLYSKLTVDKSRWQEGNVFSCSVMHEALHNHYTQKSLSLSP
light: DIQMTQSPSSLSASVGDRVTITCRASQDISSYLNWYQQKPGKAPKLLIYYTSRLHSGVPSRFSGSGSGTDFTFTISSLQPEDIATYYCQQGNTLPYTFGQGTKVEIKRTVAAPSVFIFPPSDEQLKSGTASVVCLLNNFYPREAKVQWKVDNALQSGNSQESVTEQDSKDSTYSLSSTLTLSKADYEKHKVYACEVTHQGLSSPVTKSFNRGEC
notes: Same variable regions as m1; The M82 constant region is an IgG2 variant with C219S, C220S, H268Q, R355Q and Q419E (EU numbering) and with Gly446 and Lys447 deleted; also called M82-k0
